“Also recorded” adds a separate entry of the source.
Assays:
BxPC-3 tumor = experiment: Xenograft human pancreatic tumor model; type: in vivo, mice; conditions: BxPC-3 tumor sections, FIGS. 6E and 6F
Experimental: (iv) Xenograft Human Pancreatic Tumor Model Human pancreatic tumor cells BxPC-3 and MiaPaCa cells were re-suspended in PBS and injected subcutaneously (s.c.) (5×10^6 cells, total volume 0.15 mL) into the right flank of mice. […] Mice body weights and the tumor sizes were measured twice a week. Tumor sizes were measured using a caliper, and the tumor volume was calculated by […]. After the experiment, all mice were sacrificed, mice blood samples were collected and the tumor masses were removed and weighted. The differences in mean tumor volume and tumor weight were evaluated by Student's t-test. […] Results (i) FB704 Inhibits In Vivo Angiogenesis in a Matrigel Assay
FB704 enhanced the anti-tumor activity of Oxaliplatin or Gemcitabine in a human pancreatic cancer model.

[1] = system: IL6-induced phosphorylated STAT3 in U266 cells; experiment: Cell signaling transduction assay (P-STAT3 western blot); type: cell-based, human; conditions: for STAT3 phosphorylation inhibition percentage of control: rhIL6; for suppression of phosphorylated-STAT3 signaling: western blot, FIG. 1A/1B
Experimental: U266 cells (1×10^6/ml) were washed twice with serum-free RPMI 1640 and cultured for 2 h in the absence of fetal bovine serum and growth factors. Cells were stimulated with rhIL6 (5 ng/ml) for 30 min at 37° C. and then treated with or without anti-IL6 antibodies. Cells were washed with ice-cold PBS, and then lysed in RIPA buffer (Thermo) supplemented with protease and phosphatase inhibitor (Roche). Western blot analysis was performed using anti-pSTAT3, and anti-STAT3 (Cell Signaling Technology) antibodies. After incubating with HRP-labeled goat anti-rabbit (Thermo) or HRP-labeled goat anti-mouse antibody (Thermo), the membranes were developed by enhanced chemiluminescence (GE Healthcare).
Human multiple myeloma U266 cells were used to examine the effect of anti-IL6 antibodies on IL6-induced signaling cascade. U266 cells were cultured in the presence or absent of antibodies, together with rhIL6. After 30 minutes, whole cell lysates were collected and western blot analysis was performed to examine phosphorylated STAT3 protein (P-STAT3), which is a major transcription factor involved in the IL6 signaling pathway. […] (FIGS. 1A and 1B).

[2] = system: human prostate cancer PC-3 cell; experiment: Prostate PC3 tumor metastasis and cachexia, intrasplenic implantation model; conditions: for total body weights (cachexia): day 31 after PC-3 implantation, 20 mg/kg i.v. twice a week, P<0.01; for symptom-free survival of PC3 tumor-bearing mice: repetitive injections, Kaplan-Meier, FIG. 5B
Experimental: The body weights of those mice were measured twice a week.
All mice were then euthanized by CO2 asphyxiation and body weights were determined. Primary tumors in the spleen and liver were excised, photographed, and weighed. Organ index was expressed as milligram organ per gram mouse. Mean+SD were calculated using Student's t-test. The survival assay was used Kaplan-Meier analysis. Paraffin-embedded or frozen section of tumor masses were prepared and stained by anti-CD31 and Ki-67 plus Hematoxylin staining for analysis.
To verify the efficacy of FB704 on cancer induced cachexia and metastasis, mice were implanted with human prostate cancer PC-3 cell (1.0×10^6 per mouse) by intrasplenic injection. On day 1, the mice were randomized into 4 groups (n=12-15). High (20 mg/kg) and low (5 mg/kg) dose of FB704, positive control Actemra (20 mg/kg) and PBS were administered via i.v. (intravenous) injection twice a week.

recombinant human IL6 = target: T1, recombinant human IL6 (Homo sapiens, UniProt P05231); experiment: BIAcore analysis of IgG binding affinity; conditions: for Ka: association rate constant, captured IgG, BIAcore T200; for Kd: dissociation rate constant
T1 construct: purchased R&D Systems
Experimental: IgG binding affinity was measured by using human antibody capture kit (GE healthcare) in BIAcore T200 system (GE healthcare). The mouse anti-human IgG was immobilized on a CMS sensor chip via amine coupling. Approximately 700 RU of purified anti-IL6 IgG in HBS-EP+ buffer were captured onto the immobilized surface. The recombinant human IL6 (R&D Systems) at concentrations ranging from 25.6 nM to 0.4 nM in HBS-EP+ buffer was injected for 2 minutes using a flow rate of 30 μl/min. Dissociation of bound antigen in HBS^−EP^+ buffer flow was followed for 7 minutes. The surfaces IgG were regenerated after each cycle using regeneration solution (3M MgCl2). The dissociation constant (KD) was calculated as kd/ka.

[3] = system: IL6 plus sIL6R induced MCP-1 and sICAM-1 in HUVECs; experiment: MCP-1 and sICAM-1 production in HUVEC cells (ELISA); type: cell-based, human; conditions: 24 h; for inhibition of IL6+sIL6R induced MCP-1 secretion: FIG. 2A; for inhibition of sICAM-1 production: FIG. 2B
Experimental: To examine the effectiveness of the anti-IL6 antibodies described herein in treating rheumatoid arthritis (RA), monocyte chemotactic protein-1 (MCP-1) and sICAM-1 secretion by Human Umbilical Vein Endothelial Cells (HUVECs) were measured after antibody treatment as follows. The HUVEC cells were plated in a 48-well plate at a density of 2×10^5 cells/ml. The cells were treated with a combination of recombinant human IL6, IL6 receptor-α (R&D systems) with or without anti-IL6 antibodies at various concentrations or the control IgG antibody at 37° C. for 24 h. Cell free culture supernatants were collected and analysis for MCP-1 and sICAM-1 by ELISA (RayBiotech)

[4] = system: IL6-induced MCP-1 in PBMC cells; experiment: MCP-1 production in human PBMC; type: cell-based; conditions: PBMC of five healthy donors, IL6 100 ng/ml, 24 h, FIG. 7B
Experimental: Further, PBMCs were isolated from five healthy donors. The cells (5×10^5 cells/250 μl/well) were cultured with IL6 (100 ng/ml) for 24 h in a 96-well U-bottomed culture plates (Corning, Corning, N.Y.) containing RPMI1640 in the presence of anti-IL6 antibodies at different concentrations. The levels of MCP-1 in the supernatant were measured by MCP-1 ELISA kits (e Bioscience).

[5] = system: human IL6 and other cytokines (IL6 family and non-IL6 family); experiment: Specificity analysis ELISA on coated cytokines; type: binding; conditions: FIGS. 3A and 3B
Experimental: Plates were coated with recombinant human IL3, IL4, IL5, IL6, IL11, IL17A, CNTF, OSM, IGF-1 (R&D Systems), IL2, FGF (Prospec), VEGF, TNF-α, EGF (Peprotech) at 2 μg/ml in 0.1M NaHCO3 buffer at 4° C. overnight. After being washed by PBS, the wells were blocked with 1% (w/v) BSA in PBS at RT for 1 h. Purified anti-IL6 antibodies in four-fold serial dilutions at a starting concentration of 2 μg/ml were placed into the wells and incubated at RT for 1 h. The plate was washed in PBS containing 0.1% (w/v) Tween 20 and then probed with HRP-labeled goat anti-human IgG (KPL) diluted 1:10,000 in 1% BSA-PBS for 40 min at RT. The plate was again washed and a TMB substrate solution was added to develop color. Stop solution (1M H2SO4) was then added and the absorption at 450 nm quantitated using VERSA max (Molecular Devices).
An ELISA assay as described herein was performed to confirm the binding specificity of high-affinity anti-IL6 antibodies described herein. Briefly, plates were coated with different cytokines as indicated in FIG. 3A (IL6 family cytokines) and FIG. 3B (non-IL6 family cytokines) and the binding activities of the FB704 antibody clone (i.e. Ag1-4-6) to those cytokines were examined.

[6] = system: hIL6-induced angiogenesis; experiment: Matrigel angiogenesis assay; type: in vivo, mice; conditions: listed as FB704
Experimental: Liquid matrigel (BD Biosciences) was maintained at 4° C. hIL6 recombinant protein (R&D Systems) was added to Matrigel to a final concentration of 100 ng/0.5 ml. […] Then, the mice were treated with anti-IL6 IgG antibodies or a control IgG antibody through intravenous injection. On day 6, the mice were euthanized by CO2 asphyxiation. Matrigel plugs were removed, weighed and photographed. To measure hemoglobin levels, the Matrigel plug was lysed with a lysis buffer (1% SDS, 0.5% Triton in PBS) overnight at 4° C. The hemoglobin contents of the plugs were quantitated using Drabkin's reagent (Sigma). The concentrations of hemoglobin in the plugs were determined using a standard curve of bovine hemoglobin (Sigma). Hemoglobin contents were indicated as micrograms hemoglobin per gram Matrigel. Mean+SD were calculated using the Student's unpaired t test; p<0.05 was considered as statistically significant.
The anti-angiogenic ability of FB704 was examined in an in vivo matrigel model as described herein. Six days after the treatment, the mice were scarified mice and hemoglobin concentrations were measured. […] (FIG. 4B).

T1 sequence (P05231 30-212): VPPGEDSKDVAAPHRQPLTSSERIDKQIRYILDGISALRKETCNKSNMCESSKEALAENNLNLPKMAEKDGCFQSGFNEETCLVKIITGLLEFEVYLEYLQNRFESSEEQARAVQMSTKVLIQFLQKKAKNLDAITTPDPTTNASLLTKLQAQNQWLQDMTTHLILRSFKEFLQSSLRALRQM

For O=C1[O][Pt]2([NH][C@@H]3CCCC[C@H]3[NH]2)[O]C1=O [Oxaliplatin, reference compound], the “Ki-67 positive cell rate” value (BxPC-3 tumor) was 14%.

With “Actemra: anti-IL6 receptor humanized antibody, FDA-approved for rheumatoid arthritis, used as a control [reference compound]” the “STAT3 phosphorylation inhibition percentage of control” value ([1]; Ab concentration 0.05 μg/ml) was 0%, the “STAT3 phosphorylation inhibition percentage of control” value ([1]; Ab concentration 0.5 μg/ml) was 17% and the “total body weights (cachexia)” value [2] was “remained stable”. For the same molecule, the “symptom-free survival of PC3 tumor-bearing mice” value [2] was “significantly prolonged symptom-free survival”.

B1: 1-4-62: parent fully-human anti-IL6 antibody clone; HC CDR3 SEQ ID NO: 6, LC CDR3 SEQ ID NO: 13 (antibody, V domains shown)
VH: EVQLVESGPALVKPTQTLTLTCTFSGFSLSTGGMSVSWIRQPPGKALEWLARIDWDDDKFYTPSLKTRLTISRDTSKNQVVLIMTNMDPVDTATYYCARMHIDDSNGYYSDAFHIWGQGTMVTVSS
VL: EIVLTQSPATLSVSPGERVTLSCRDSQSVSSTSLAWYQQKSGQAPRLLIYDTSNRATGIPARFSGGGSGTDFTLTISSLEPEDFAVYYCLVRNNWPPRFTFGQGTKVEIK
In the case of B1, the “dissociation rate constants (kd)” value (recombinant human IL6) is reported as 0.00166 s⁻¹, the “Ka” value (recombinant human IL6) is reported as 438000 M⁻¹ s⁻¹ and the “Kd” value (recombinant human IL6) is reported as 0.00166 s⁻¹.

B2: HAg1T-3-10: affinity-matured fully-human anti-IL6 antibody; HC CDR3 SEQ ID NO: 16, LC CDR3 SEQ ID NO: 15 (antibody, V domains shown)
VH: EVQLVESGPALVKPTQTLTLTCTFSGFSLSTGGMSVSWIRQPPGKALEWLARIDWDDDKFYTPSLKTRLTISRDTSKNQVVLIMTNMDPVDTATYYCARMHIDDSNGYFSDAFHIWGQGTMVTVSS
VL: EIVLTQSPATLSVSPGERVTLSCRDSQSVSSTSLAWYQQKSGQAPRLLIYDTSNRATGIPARFSGGGSGTDFTLTISSLEPEDFAVYYCSFVSRPYPRFTFGQGTKVEIK
With B2 the “dissociation rate constants (kd)” value (recombinant human IL6) was 0.0006 s⁻¹, the “Ka” value (recombinant human IL6) was 2.24e+06 M⁻¹ s⁻¹ and the “Kd” value (recombinant human IL6) was 0.0006 s⁻¹. For the same molecule, the “suppression of phosphorylated-STAT3 signaling” value [1] was “at a level greater than Actemra”, the “suppression of phosphorylated-STAT3 signaling” value ([1]; listed as HAgT1-3-10) was “suppressed the STAT3 signaling at a much greater level as compared to control antibody Actemra” and the “inhibition of IL6+sIL6R induced MCP-1 secretion” value [3] was “in a dose dependent manner”. The “inhibition of IL6+sIL6R induced MCP-1 secretion” value ([3]; listed as Hag1T-3-10) was “inhibited”, the “inhibition of sICAM-1 production” value [3] was “in a dose dependent manner” and the “inhibition of sICAM-1 production” value ([3]; listed as Hag1T-3-10) was “at a level greater than Actemra”. For the same molecule, the “suppression of MCP-1 production” value [4] was “inhibited MCP-1 production in a dose dependent manner”.

B3: Ag1-4-6: affinity-matured fully-human anti-IL6 antibody; HC CDR3 SEQ ID NO: 6, LC CDR3 SEQ ID NO: 15 (antibody, V domains shown)
VH: EVQLVESGPALVKPTQTLTLTCTFSGFSLSTGGMSVSWIRQPPGKALEWLARIDWDDDKFYTPSLKTRLTISRDTSKNQVVLIMTNMDPVDTATYYCARMHIDDSNGYYSDAFHIWGQGTMVTVSS
VL: EIVLTQSPATLSVSPGERVTLSCRDSQSVSSTSLAWYQQKSGQAPRLLIYDTSNRATGIPARFSGGGSGTDFTLTISSLEPEDFAVYYCSFVSRPYPRFTFGQGTKVEIK
B3 was tested, and the “Ka” value (recombinant human IL6) was 1.61e+06 M⁻¹ s⁻¹, the “Kd” value (recombinant human IL6) was 0.00121 s⁻¹ and the “suppression of phosphorylated-STAT3 signaling” value [1] was “at a level greater than Actemra; also recorded: suppressed the STAT3 signaling at a much greater level as compared to control antibody Actemra”. The “binding activity to coated cytokines (specificity)” value [5] was “high binding activity to human IL6 protein but not to other cytokines”, the “inhibition of IL6-induced angiogenesis in matrigel plugs” value ([6]; 6 days after treatment, FIG. 4A) was “observable difference in color and vessel density; also recorded: inhibited angiogenesis” and the “hemoglobin concentrations in matrigel plugs” value ([6]; day 6, compared with hIL6, FIG. 4B) was “significantly reduced the hemoglobin concentrations; also recorded: significantly changed the hemoglobin concentrations”. The “Ki-67 positive cell rate” value (BxPC-3 tumor) was 16%, the “inhibition of IL6+sIL6R induced MCP-1 secretion” value [3] was “in a dose dependent manner; also recorded: inhibited” and the “inhibition of sICAM-1 production” value [3] was “in a dose dependent manner; also recorded: at a level greater than Actemra”. The “suppression of MCP-1 production” value [4] was “inhibited MCP-1 production in a dose dependent manner”, the “total body weights (cachexia)” value [2] was “remained stable” and the “tumor cell infiltration in liver” value ([2]; gross necropsy, FIG. 5C) was “moderate tumor cell infiltration”. For the same molecule, the “vessel density / CD31 staining on tumor sections” value ([2]; immunohistochemistry, vs PBS, FIGS. 5D and 5E) was “significantly decreased” and the “symptom-free survival of PC3 tumor-bearing mice” value ([2]; listed as FB704) was “significantly prolonged symptom-free survival; also recorded: significantly better efficacy than Actemra; also recorded: significant better efficacy than Actemra”.
